Measured values from US20230212319A1, “NOVEL ANTIGEN BINDING DOMAINS AND SYNTHETIC ANTIGEN RECEPTORS INCORPORATING THE SAME” (University of Southern California, priority 2020, published 2023).

B1: 22116 (protein)
chain: MALPVTALLLPLALLLHAARPQVQLVESGGGLVQPGGSLRLSCAASGFTFTNHAMSWVRQAPGKGLELVSSISGNGRTTYYADSVKGRFTISRDISKNTLDLQMNSLRAEDTAVYYCAKDGGETLVDSRGQGTLVTVSSLEIQNPDPAVYQLRDSKSSDKSVCLFTDFDSQTNVSQSKDSDVYITDKCVLDMRSMDFKSNSAVAWSNKSDFACANAFNNSIIPEDTFFPSSDVPCDVKLVEKSFETDTNLNFQNLSVIGFRILLLKVAGFNLLMTLRLWSSRAKRSGSGVKQTLNFDLLKLAGDVESNPGPTSTMALPVTALLLPLALLLHAARPQVQLVESGGGLVQPGGSLRLSCAASGFTFTNHAMSWVRQAPGKGLELVSSISGNGRTTYYADSVKGRFTISRDISKNTLDLQMNSLRAEDTAVYYCAKDGGETLVDSRGQGTLVTVSSLESGGGGSFEQVQLQQPGAELVKPGASVKMSCKASGYAFSSYWINWMKQKPGQGLEWIGQIYPGDGDTNYNGKFKGRATLTADTSSSTAYMQLSSLTSEDSAVYFCARSITTVVGCAMDYWGQGTSVTVSSTREDLKNVFPPEVAVFEPSKAEIAHTQKATLVCLATGFYPDHVELSWWVNGKEVHSGVCTDPQPLKEQPALNDSRYCLSSRLRVSATFWQNPRNHFRCQVQFYGLSENDEWTQDRAKPVTQIVSAEAWGRADCGITSASYHQGVLSATILYEILLGKATLYAVLVSALVLMAMVKRKDSRGRAKRSGSGATNFSLLKQAGDVEENPGPSRGHMTEYKPTVRLATRDDVPRAVRTLAAAFADYPATRHTVDPDRHIERVTELQELFLTRVGLDIGKVWVADDGAAVAVWTTPESVEAGAVFAEIGPRMAELSGSRLAAQQQMEGLLAPHRPKEPAWFLATVGVSPDHQGKGLGSAVVLPGVEAAERAGVPAFLETSAPRNLPFYERLGFTVTADVEVPEGPRTWCMTRKPGA
B2: 22142 (protein)
chain: MALPVTALLLPLALLLHAARPQVQLVESGGGLVQPGGSLRLSCAASGFTFTNHAMSWVRQAPGKGLELVSSISGNGRTTYYADSVKGRFTISRDISKNTLDLQMNSLRAEDTAVYYCAKDGGETLVDSRGQGTLVTVSSLEGGGGSGGGGSIEGGGGSGGGGSKVQLLESGGGLVQPGGSLRLSCAASGFIFSSYAMSWVRQAPGKGQEWVSGVSGTGVNTYYADSVKGRFTISRDNSKNTLYLQMNSLRAEDTAVYYCASGKGWDSGSWYEDYRGQGTLVTVSSGTGGGGSGGGGSGGGGSEFDIQMTQSPSSLSASVGDRVTITCKASDHINNWLAWYQQKPGQAPKLLIYGATTLETGVPSRFSGSGSGTDYTLTISSLQPEDFATYYCQQSWNTPWTFGQGTKLEIKRLEIQNPDPAVYQLRDSKSSDKSVCLFTDFDSQTNVSQSKDSDVYITDKCVLDMRSMDFKSNSAVAWSNKSDFACANAFNNSIIPEDTFFPSSDVPCDVKLVEKSFETDTNLNFQNLSVIGFRILLLKVAGFNLLMTLRLWSSRAKRSGSGVKQTLNFDLLKLAGDVESNPGPTSATMDWIWRILFLVGAATGAHSGPQVQLQESGGGLAQAGGSLRLSCAASGRTFSMGWFRQAPGKEREFVAAITYSGGSPYYASSVRGRFTISRDNAKNTVYLQMNSLKPEDTAVYYCAANPTYGSDWNAENWGQGTQVTVSSGSGGGGSGGGGSGGGGSFEQVQLQQPGAELVKPGASVKMSCKASGYAFSSYWINWMKQKPGQGLEWIGQIYPGDGDTNYNGKFKGRATLTADTSSSTAYMQLSSLTSEDSAVYFCARSITTVVGCAMDYWGQGTSVTVSSTREDLKNVFPPEVAVFEPSKAEIAHTQKATLVCLATGFYPDHVELSWWVNGKEVHSGVCTDPQPLKEQPALNDSRYCLSSRLRVSATFWQNPRNHFRCQVQFYGLSENDEWTQDRAKPVTQIVSAEAWGRADCGITSASYHQGVLSATILYEILLGKATLYAVLVSALVLMAMVKRKDSRGRAKRSGSGATNFSLLKQAGDVEENPGPSRGHMTEYKPTVRLATRDDVPRAVRTLAAAFADYPATRHTVDPDRHIERVTELQELFLTRVGLDIGKVWVADDGAAVAVWTTPESVEAGAVFAEIGPRMAELSGSRLAAQQQMEGLLAPHRPKEPAWFLATVGVSPDHQGKGLGSAVVLPGVEAAERAGVPAFLETSAPRNLPFYERLGFTVTADVEVPEGPRTWCMTRKPGA
B3: 22130 (protein)
chain: MALPVTALLLPLALLLHAARPACEVQLLESGGGLIQPGGSLRLSCAASGFTFSSHAMTWVRQAPGKGLEWVSAISGSGDYTHYADSVKGRFTISRDNSKNTVYLQMNSLRAEDSAVYYCAKDEDGGSLLGHRGQGTLVTVSSGTGGGGSGGGGSGGGGSEFDIQMTQSPSSLSASVGDRVTITCKASDHINNWLAWYQQKPGQAPKLLIYGATTLETGVPSRFSGSGSGTDYTLTISSLQPEDFATYYCQQSWNTPWTFGQGTKLEIKRLEDLKNVFPPEVAVFEPSKAEIAHTQKATLVCLATGFYPDHVELSWWVNGKEVHSGVCTDPQPLKEQPALNDSRYCLSSRLRVSATFWQNPRNHFRCQVQFYGLSENDEWTQDRAKPVTQIVSAEAWGRADCGITSASYHQGVLSATILYEILLGKATLYAVLVSALVLMAMVKRKDSRGRAKRSGSGATNFSLLKQAGDVEENPGPTSATMDWIWRILFLVGAATGAHSGPQVQLQESGGGLAQAGGSLRLSCAASGRTFSMGWFRQAPGKEREFVAAITYSGGSPYYASSVRGRFTISRDNAKNTVYLQMNSLKPEDTAVYYCAANPTYGSDWNAENWGQGTQVTVSSGSGGGGSGGGGSGGGGSFEQVQLQQPGAELVKPGASVKMSCKASGYAFSSYWINWMKQKPGQGLEWIGQIYPGDGDTNYNGKFKGRATLTADTSSSTAYMQLSSLTSEDSAVYFCARSITTVVGCAMDYWGQGTSVTVSSTRIQNPDPAVYQLRDSKSSDKSVCLFTDFDSQTNVSQSKDSDVYITDKCVLDMRSMDFKSNSAVAWSNKSDFACANAFNNSIIPEDTFFPSSDVPCDVKLVEKSFETDTNLNFQNLSVIGFRILLLKVAGFNLLMTLRLWSSRAKRSGSGVKQTLNFDLLKLAGDVESNPGPSRGHMTEYKPTVRLATRDDVPRAVRTLAAAFADYPATRHTVDPDRHIERVTELQELFLTRVGLDIGKVWVADDGAAVAVWTTPESVEAGAVFAEIGPRMAELSGSRLAAQQQMEGLLAPHRPKEPAWFLATVGVSPDHQGKGLGSAVVLPGVEAAERAGVPAFLETSAPRNLPFYERLGFTVTADVEVPEGPRTWCMTRKPGA
B4: 22109 (protein)
chain: MALPVTALLLPLALLLHAARPMLPAPKNLVVSRITEDSARLSWTAPDAAFDSFPIRYIETLIWGEAIWLDVPGSERSYDLTGLKPGTEYAVVITGVKGGRFSSPLVASFTTGTGGGGSGGGGSGGGGSEFDIQMTQSPSSLSASVGDRVTITCKASDHINNWLAWYQQKPGQAPKLLIYGATTLETGVPSRFSGSGSGTDYTLTISSLQPEDFATYYCQQSWNTPWTFGQGTKLEIKRLEDLKNVFPPEVAVFEPSEAEISHTQKATLVCLATGFYPDHVELSWWVNGKEVHSGVCTDPQPLKEQPALNDSRYCLSSRLRVSATFWQNPRNHFRCQVQFYGLSENDEWTQDRAKPVTQIVSAEAWGRADCGFTSESYQQGVLSATILYEILLGKATLYAVLVSALVLMAMVKRKDSRGRAKRSGSGATNFSLLKQAGDVEENPGPTSMDWIWRILFLVGAATGAHSFEQVQLQQPGAELVKPGASVKMSCKASGYAFSSYWINWMKQKPGQGLEWIGQIYPGDGDTNYNGKFKGRATLTADTSSSTAYMQLSSLTSEDSAVYFCARSITTVVGCAMDYWGQGTSVTVSSTRIQNPDPAVYQLRDSKSSDKSVCLFTDFDSQTNVSQSKDSDVYITDKCVLDMRSMDFKSNSAVAWSNKSDFACANAFNNSIIPEDTFFPSPESSCDVKLVEKSFETDTNLNFQNLSVIGFRILLLKVAGFNLLMTLRLWSSRAKRSGSGVKQTLNFDLLKLAGDVESNPGPSRGHMTEYKPTVRLATRDDVPRAVRTLAAAFADYPATRHTVDPDRHIERVTELQELFLTRVGLDIGKVWVADDGAAVAVWTTPESVEAGAVFAEIGPRMAELSGSRLAAQQQMEGLLAPHRPKEPAWFLATVGVSPDHQGKGLGSAVVLPGVEAAERAGVPAFLETSAPRNLPFYERLGFTVTADVEVPEGPRTWCMTRKPGA

Test system: RS;411
Experiment: JNG assay, co-culture with RS;411 cells
Format: cell-based
Conditions: co-culture with RS411
Procedure, shortened: (§1)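 Jurkat NFAT-GFP (JNG) cells stably transduced with SARs by lentivirus, with drug selection where the construct carried a resistance gene, then co-cultured with target cells at E:T ~1:2 for ~4–18 h. % GFP-positive cells measured by FACS against parental JNG; +/- to 5+ correspond to ~5–50% GFP-positive.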

Question: How did the “NFAT-GFP ASSAY: RS411” value turn out when B1 was run?
Answer: The value was 2+ (refer to approximately 5%, 10%, 20%, 30%, 40% and 50% GFP positive cells).

Question: Which “NFAT-GFP ASSAY: RS411” value does the source give for B2 here?
Answer: The value was “+/- (refer to approximately 5%, 10%, 20%, 30%, 40% and 50% GFP positive cells)”.

Question: With B3 as the molecule, how does the “NFAT-GFP ASSAY: RS411” value read?
Answer: Its value is 4+ (refer to approximately 5%, 10%, 20%, 30%, 40% and 50% GFP positive cells).

Question: B4 was tested. Which “NFAT-GFP ASSAY: RS411” value did it give?
Answer: Its value is 4+ (refer to approximately 5%, 10%, 20%, 30%, 40% and 50% GFP positive cells).

Test system: L363 cells
Experiment: JNG assay, co-culture with L363 cells
Format: cell-based
Conditions: co-culture with L363
Procedure, shortened: as §1

Question: Which “NFAT-GFP ASSAY: L363” value does the source give for B3 here?
Answer: Its value is 5+ (refer to approximately 5%, 10%, 20%, 30%, 40% and 50% GFP positive cells).

Question: How did the “NFAT-GFP ASSAY: L363” value turn out when B4 was run?
Answer: Its value is “+/- (refer to approximately 5%, 10%, 20%, 30%, 40% and 50% GFP positive cells)”.

Test system: Nalm6 cells
Experiment: JNG assay, co-culture with Nalm6 cells
Format: cell-based
Conditions: co-culture with Nalm6
Procedure, shortened: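 Values are semi-quantitative grades of GFP induction, each step approximating 10% more GFP+ cells (5+ ≈50%) above parental reporter cells, measured by FACS after SAR-transduced JNG cells were cultured with targets at ~1:2 E:T for ~4–18 h.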

Question: B1 was tested. Which “NFAT-GFP ASSAY: Nalm6” value did it give?
Answer: The value was 3+ (refer to approximately 5%, 10%, 20%, 30%, 40% and 50% GFP positive cells).

Question: B2 was tested. Which “NFAT-GFP ASSAY: Nalm6” value did it give?
Answer: Its value is “+ (refer to approximately 5%, 10%, 20%, 30%, 40% and 50% GFP positive cells)”.

Question: How did the “NFAT-GFP ASSAY: Nalm6” value turn out when B4 was run?
Answer: Its value is 2+ (refer to approximately 5%, 10%, 20%, 30%, 40% and 50% GFP positive cells).

Test system: RAJI cells
Experiment: JNG assay, co-culture with RAJI cells
Format: cell-based
Conditions: JNG cells expressing construct, co-culture with Raji
Procedure, shortened: as §1

Question: For B1, which “NFAT-GFP ASSAY: Raji” value is on record?
Answer: Its value is 3+ (refer to approximately 5%, 10%, 20%, 30%, 40% and 50% GFP positive cells).

Question: B2 was tested. Which “NFAT-GFP ASSAY: Raji” value did it give?
Answer: Its value is “+ (refer to approximately 5%, 10%, 20%, 30%, 40% and 50% GFP positive cells)”.

Question: B3 was tested. Which “NFAT-GFP ASSAY: Raji” value did it give?
Answer: The value was 4+ (refer to approximately 5%, 10%, 20%, 30%, 40% and 50% GFP positive cells).

Question: Which “NFAT-GFP ASSAY: Raji” value does the source give for B4 here?
Answer: Its value is 2+ (refer to approximately 5%, 10%, 20%, 30%, 40% and 50% GFP positive cells).

Test system: RAJI-CD19-KO cells
Experiment: JNG assay, co-culture with RAJI-CD19-KO cells
Format: cell-based
Conditions: co-culture with Raji-CD19-KO
Procedure, shortened: as §1

Question: How did the “NFAT-GFP ASSAY: Raji-CD19-KO” value turn out when B1 was run?
Answer: The value was 2+ (refer to approximately 5%, 10%, 20%, 30%, 40% and 50% GFP positive cells).

Question: For B2, which “NFAT-GFP ASSAY: Raji-CD19-KO” value is on record?
Answer: Its value is “+ (refer to approximately 5%, 10%, 20%, 30%, 40% and 50% GFP positive cells)”.

Question: How did the “NFAT-GFP ASSAY: Raji-CD19-KO” value turn out when B3 was run?
Answer: The value was 5+ (refer to approximately 5%, 10%, 20%, 30%, 40% and 50% GFP positive cells).

Question: For B4, which “NFAT-GFP ASSAY: Raji-CD19-KO” value is on record?
Answer: Its value is “+/- (refer to approximately 5%, 10%, 20%, 30%, 40% and 50% GFP positive cells)”.
